Data reported in patent publication US20140274782A1, “AFFINITY REAGENTS AND METHODS FOR DETECTION, PURIFICATION, AND PROTEOMIC ANALYSIS OF METHYLATED PROTEINS” (The Board of Trustees of the Leland Stanford Junior …, priority 2013, published 2014).
One block for each molecule: values may come before it.

Key:
[1] = test system: 3×MBT domain of L3MBTL1; assay: Triple SILAC pull-down, 3xMBT/3xMBTD355N ratio (cytoplasmic, nuclear and chromatin fractions of 293T cells); format: binding, human; conditions: SILAC ratio, pull-down 3xMBT vs 3xMBTD355N; for 3xMBT/D355N UNC Heavy: experiment with UNC0638 in heavy SILAC media; for 3xMBT/D355N UNC Light: experiment with UNC0638 in light SILAC media;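 for all read-outs here: proteins quantified with MaxQuant, requiring at least two unique peptides and quantification in both label directions, normalized to the mean of proteins from a digested loading control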
[2] = molecular target: T1, G9a and GLP (Homo sapiens, UniProt Q96KQ7+Q9H9B1); assay: Triple SILAC pull-down after UNC0638 treatment of 293T cells, DMSO/UNC0638 ratio of protein captured by 3×MBT; format: cell-based; set-up: cells were treated for 24 hours with UNC0638 at 2.5 μM or DMSO vehicle control; endogenous in cells; host or cells: HEK 293T; conditions: for Relative to UNC0638 UNC Heavy / Relative to UNC0638 UNC Light: SILAC ratio DMSO/UNC0638 of protein pulled down with 3xMBT; for Relative to UNC0638 UNC Heavy: UNC0638 in heavy SILAC media; for Relative to UNC0638 UNC Light: UNC0638 in light SILAC media; for Relative to UNC0638 Average: average of UNC Light and UNC Heavy experiments;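 for all read-outs here: mass spectrometry (Q-Exactive) SILAC quantitation, DMSO/UNC0638 ratio computed after subtracting 3×MBTD355N mutant pull-down background, only proteins with at least twofold 3×MBT over mutant signal considered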
T1 sequence (Q96KQ7 2-1210 limits assumed): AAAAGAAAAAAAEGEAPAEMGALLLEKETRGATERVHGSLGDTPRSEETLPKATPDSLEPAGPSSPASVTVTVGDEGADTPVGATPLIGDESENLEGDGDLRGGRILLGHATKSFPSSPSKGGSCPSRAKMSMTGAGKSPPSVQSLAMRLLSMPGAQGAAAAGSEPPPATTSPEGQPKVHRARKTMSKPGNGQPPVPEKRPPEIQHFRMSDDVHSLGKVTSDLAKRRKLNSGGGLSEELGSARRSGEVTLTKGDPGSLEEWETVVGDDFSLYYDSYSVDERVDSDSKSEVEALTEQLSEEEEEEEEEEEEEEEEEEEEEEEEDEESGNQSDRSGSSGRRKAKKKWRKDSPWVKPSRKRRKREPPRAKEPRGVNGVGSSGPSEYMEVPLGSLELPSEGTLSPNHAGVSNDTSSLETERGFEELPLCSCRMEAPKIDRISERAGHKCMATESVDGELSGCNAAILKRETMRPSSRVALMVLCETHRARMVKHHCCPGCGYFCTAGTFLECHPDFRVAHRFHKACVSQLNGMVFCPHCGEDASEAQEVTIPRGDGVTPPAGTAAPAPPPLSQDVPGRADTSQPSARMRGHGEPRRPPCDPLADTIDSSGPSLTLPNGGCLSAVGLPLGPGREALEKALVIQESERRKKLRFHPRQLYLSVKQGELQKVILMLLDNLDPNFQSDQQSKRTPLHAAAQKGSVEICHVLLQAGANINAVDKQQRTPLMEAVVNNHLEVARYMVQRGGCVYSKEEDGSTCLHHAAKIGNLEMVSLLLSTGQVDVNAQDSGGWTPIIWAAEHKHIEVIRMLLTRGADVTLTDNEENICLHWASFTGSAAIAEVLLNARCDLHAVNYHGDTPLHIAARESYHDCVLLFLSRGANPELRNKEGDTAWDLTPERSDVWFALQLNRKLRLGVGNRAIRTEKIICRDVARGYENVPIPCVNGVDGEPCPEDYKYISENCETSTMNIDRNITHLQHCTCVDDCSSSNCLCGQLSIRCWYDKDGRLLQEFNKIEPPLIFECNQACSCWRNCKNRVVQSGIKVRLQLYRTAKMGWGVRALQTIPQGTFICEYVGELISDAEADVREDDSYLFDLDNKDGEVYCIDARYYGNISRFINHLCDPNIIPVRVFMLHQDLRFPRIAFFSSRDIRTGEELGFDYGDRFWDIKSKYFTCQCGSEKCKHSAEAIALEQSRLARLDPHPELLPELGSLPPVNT
T1 sequence (Q9H9B1 2-1298 limits assumed): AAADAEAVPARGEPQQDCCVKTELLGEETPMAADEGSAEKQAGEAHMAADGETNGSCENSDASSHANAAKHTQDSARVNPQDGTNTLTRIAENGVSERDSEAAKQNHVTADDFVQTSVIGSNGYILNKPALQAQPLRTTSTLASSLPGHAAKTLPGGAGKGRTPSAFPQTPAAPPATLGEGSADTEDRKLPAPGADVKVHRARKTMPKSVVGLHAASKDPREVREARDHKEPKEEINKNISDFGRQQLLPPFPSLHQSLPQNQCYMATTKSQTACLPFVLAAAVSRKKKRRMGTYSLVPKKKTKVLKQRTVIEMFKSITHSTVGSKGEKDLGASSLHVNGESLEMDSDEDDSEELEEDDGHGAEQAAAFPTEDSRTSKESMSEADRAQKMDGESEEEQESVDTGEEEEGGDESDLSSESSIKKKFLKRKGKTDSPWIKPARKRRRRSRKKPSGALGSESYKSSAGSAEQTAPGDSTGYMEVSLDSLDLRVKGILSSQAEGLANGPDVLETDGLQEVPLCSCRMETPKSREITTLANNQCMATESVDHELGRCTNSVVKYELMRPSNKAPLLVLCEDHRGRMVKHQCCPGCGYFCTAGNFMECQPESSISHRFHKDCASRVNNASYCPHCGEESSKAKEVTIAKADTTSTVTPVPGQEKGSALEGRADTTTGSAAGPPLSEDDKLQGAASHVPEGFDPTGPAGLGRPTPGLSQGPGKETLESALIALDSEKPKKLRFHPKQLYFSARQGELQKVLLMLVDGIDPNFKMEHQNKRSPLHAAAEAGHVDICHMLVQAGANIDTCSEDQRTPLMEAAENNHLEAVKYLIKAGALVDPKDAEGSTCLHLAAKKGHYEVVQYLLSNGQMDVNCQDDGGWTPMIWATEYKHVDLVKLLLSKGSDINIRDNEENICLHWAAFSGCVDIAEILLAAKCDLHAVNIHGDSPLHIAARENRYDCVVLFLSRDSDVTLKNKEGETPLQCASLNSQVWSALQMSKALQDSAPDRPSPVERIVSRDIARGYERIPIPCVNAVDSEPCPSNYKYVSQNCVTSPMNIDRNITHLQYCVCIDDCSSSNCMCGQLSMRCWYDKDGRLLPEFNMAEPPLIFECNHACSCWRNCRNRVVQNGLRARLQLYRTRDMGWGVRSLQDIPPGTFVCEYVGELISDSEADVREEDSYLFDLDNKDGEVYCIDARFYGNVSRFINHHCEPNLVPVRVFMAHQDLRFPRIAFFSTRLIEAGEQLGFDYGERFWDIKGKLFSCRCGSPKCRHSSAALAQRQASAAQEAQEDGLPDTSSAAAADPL

Relative to UNC0638 UNC Heavy [2]: 0.15 log base 2
Relative to UNC0638 UNC Light [2]: 0.34 log base 2
Relative to UNC0638 Average [2]: 0.24 log base 2
B1: SRSF11 (protein, UniProt Q05519 2-484, looked up)
Serine/arginine-rich splicing …: SNTTVVPSTAGPGPSGGPGGGGGGGGGGGGTEVIQVTNVSPSASSEQMRTLFGFLGKIDELRLFPPDDSPLPVSSRVCFVKFHDPDSAVVAQHLTNTVFVDRALIVVPYAEGVIPDEAKALSLLAPANAVAGLLPGGGLLPTPNPLTQIGAVPLAALGAPTLDPALAALGLPGANLNSQSLAADQLLKLMSTVDPKLNHVAAGLVSPSLKSDTSSKEIEEAMKRVREAQSLISAAIEPDKKEEKRRHSRSRSRSRRRRTPSSSRHRRSRSRSRRRSHSKSRSRRRSKSPRRRRSHSRERGRRSRSTSKTRDKKKEDKEKKRSKTPPKSYSTARRSRSASRERRRRRSRSGTRSPKKPRSPKRKLSRSPSPRRHKKEKKKDKDKERSRDERERSTSKKKKSKDKEKDRERKSESDKDVKQVTRDYDEEEQGYDSEKEKKEEKKPIETGSPKTKECSVEKGTGDSLRESKVNGDDHHEEDMDMSD
3xMBT/D355N UNC Heavy [1]: 2.45 log base 2
3xMBT/D355N UNC Light [1]: 2.22 log base 2

Relative to UNC0638 UNC Heavy [2]: 0.60 log base 2
Relative to UNC0638 UNC Light [2]: −0.11 log base 2
Relative to UNC0638 Average [2]: 0.24 log base 2
B2: SEC24A (protein, UniProt O95486 1-1093, looked up)
Protein transport protein …: MSQPGIPASGGAPASLQAQNGAALASGSPYTNGPVQNALLSSQESVSQGYNFQLPGSYPHPIPAKTLNPVSGQSNYGGSQGSGQTLNRPPVASNPVTPSLHSGPAPRMPLPASQNPATTPMPSSSFLPEANLPPPLNWQYNYPSTASQTNHCPRASSQPTVSGNTSLTTNHQYVSSGYPSLQNSFIKSGPSVPPLVNPPLPTTFQPGAPHGPPPAGGPPPVRALTPLTSSYRDVPQPLFNSAVNQEGITSNTNNGSMVVHSSYDEIEGGGLLATPQLTNKNPKMSRSVGYSYPSLPPGYQNTTPPGATGVPPSSLNYPSGPQAFTQTPLGANHLTTSMSGLSLQPEGLRVVNLLQERNMLPSTPLKPPVPNLHEDIQKLNCNPELFRCTLTSIPQTQALLNKAKLPLGLLLHPFKDLVQLPVVTSSTIVRCRSCRTYINPFVSFLDQRRWKCNLCYRVNDVPEEFLYNPLTRVYGEPHRRPEVQNATIEFMAPSEYMLRPPQPPVYLFVFDVSHNAVETGYLNSVCQSLLDNLDLLPGNTRTKIGFITFDSTIHFYGLQESLSQPQMLIVSDIEDVFIPMPENLLVNLNESKELVQDLLKTLPQMFTKTLETQSALGPALQAAFKLMSPTGGRMSVFQTQLPTLGVGALKPREEPNHRSSAKDIHMTPSTDFYKKLALDCSGQQVAVDLFLLSGQYSDLASLGCISRYSAGSVYYYPSYHHQHNPVQVQKLQKELQRYLTRKIGFEAVMRIRCTKGLSIHTFHGNFFVRSTDLLSLPNVNPDAGYAVQMSVEESLTDTQLVSFQSALLYTSSKGERRIRVHTLCLPVVSTLNDVFLGADVQAISGLLANMAVDRSMTASLSDARDALVNAVIDSLSAYRSSVLSNQQPGLMVPFSLRLFPLFVLALLKQKSFQTGTNARLDERIFAMCQVKNQPLVYLMLTTHPSLYRVDNLSDEGALNISDRTIPQPPILQLSVEKLSRDGAFLMDAGSVLMLWVGKNCTQNFLSQVLGVQNYASIPQPMTDLPELDTPESARIIAFISWLREQRPFFPILYVIRDESPMKANFLQNMIEDRTESALSYYEFLLHIQQQVNK
3xMBT/D355N UNC Heavy [1]: 1.94 log base 2
3xMBT/D355N UNC Light [1]: 2.29 log base 2
